In PMC8247599 one finds Kd data, which are given here for two substances.

The test system of series [1] is aTm1 252-334 (Drosophila melanogaster). In words: EMSA. A general note: Mobility shift assays separate free from complexed probe on a gel.
The target in series [2] is aTm1^252–334 (Drosophila melanogaster). In words: ITC. On the technique in general: ITC needs no label: the signal is the heat of the interaction.
The target of series [3] is GST-tagged Khc^848–941 (Drosophila) (UniProt P17210). In words: SPR.
GST-tagged Khc^848–941 (Drosophila), sequence (P17210 848-941): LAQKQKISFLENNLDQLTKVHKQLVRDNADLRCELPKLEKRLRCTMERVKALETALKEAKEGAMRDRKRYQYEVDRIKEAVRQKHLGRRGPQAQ

With “UUUUUUUUUUUUUUUUUUUUUUUUU [oligo-(U25) RNA]”, the Kd (in general, a measure of binding affinity in units of concentration) in series [1] is more than 10 µM.
Regarding aTm1^252–334 (domain or fragment), the Kd is 10 µM in series [2] and 0.141 µM in series [3].
